Target: potato virus Y (PVY)
Assay: sandwich ELISA, PVY captured by PVY capture antibody (Agdia), phage at 3 µg/ml, anti-M13 HRP detection

Substance: M13KO7 bacteriophage (from UniProt P69168 19-424; P69530 1-112; P69541 24-73)
- improved sensitivity compared to the existing antibody (PVY detection antibody, Agdia): 25%

— patent publication US20200071775A1
